Experimental findings from patent US20260250371A1 (ULTRAGENYX PHARMACEUTICAL, published 2026) are described below.

Where “and” joins values, the source holds several entries; their conditions need not be identical. Equal entries are not always repeated.

This experiment has as its target T1, recombinant human FGF23 (R179Q) (human, UniProt Q9GZV9 25-251).
T1 construct: also called rhFGF23(R179Q); hFGF23(R179Q)
T1 sequence (looked up): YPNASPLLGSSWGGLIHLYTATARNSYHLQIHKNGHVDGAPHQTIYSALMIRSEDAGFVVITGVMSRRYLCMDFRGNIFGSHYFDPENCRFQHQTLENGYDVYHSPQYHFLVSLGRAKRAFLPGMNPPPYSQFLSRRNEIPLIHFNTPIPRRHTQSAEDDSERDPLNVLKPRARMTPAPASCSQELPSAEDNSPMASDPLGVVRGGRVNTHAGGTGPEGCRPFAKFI
The experiment in a line: SPR, antibody captured on hIgG chip, rhFGF23(R179Q) analyte.

B1: UGX117 (antibody, human IgG1, kappa, V domains shown)
VH: QVQLVQSGAEVKKPGASVKVSCKASGYTFTNHYMHWVRQAPGQGLEWMGIINPISGSTSNAQKFQGRVTMTRDTSTSTVYMELSSLRSEDTAVYYCARDIVDAFDFWGQGTMVTVSS
VL: AIQLTQSPSSLSASVGDRVTITCRASQGISSALIWYQQKPGKAPKLLIYDASSLESGVPSRFSGSGSGTDFTLTISSLQPEDFATYYCQQFNDYFTFGPGTKVDIKR
notes: also called LC:V34I
What is called Kd is the equilibrium constant for the complex coming apart. Broadly, the koff is the first-order rate constant of dissociation. Broadly, the kon is the second-order rate constant of association. Regarding B1, the Kd was 0.0504 nM and 0.0703 nM; the “Ratio (variant antibody KD/burosumab KD)” value was 0; the koff was 0.000169 s⁻¹ and 0.000204 s⁻¹; the kon is 3.35e+06 M⁻¹ s⁻¹ and 2.9e+06 M⁻¹ s⁻¹.

B2: UGX151 (antibody, human IgG1, kappa, V domains shown)
VH: QVQLVQSGAEVKKPGASVKVSCKASGYTFTFHYMHWVRQAPGQGLEWMGIINPISGSTSNAQKFQGRVTMTRDTSTSTVYMELSSLRSEDTAVYYCARDIVDAFDFWGQGTMVTVSS
VL: AIQLTQSPSSLSASVGDRVTITCRASQGISSALVWYQQKPGKAPKLLIYDASSLESGVPSRFSGSGSGTDFTLTISSLQPEDFATYYCQQFNDYFTFGPGTKVDIKR
notes: also called HC:N31F
As for B2, the Kd stood at 0.0255 nM, the “Ratio (variant antibody KD/burosumab KD)” value was determined as 1, the “SA (surface activity)” value is 90.3% and the koff was determined as 0.000212 s⁻¹. Also, the kon is 8.32e+06 M⁻¹ s⁻¹.

B3: UGX160 (antibody, human IgG1, kappa, V domains shown)
VH: QVQLVQSGAEVKKPGASVKVSCKASGYTFTNHYMHWVRQAPGQGLEWMGIINPISGSTFNAQKFQGRVTMTRDTSTSTVYMELSSLRSEDTAVYYCARDIVDAFDFWGQGTMVTVSS
VL: AIQLTQSPSSLSASVGDRVTITCRASQGISSALVWYQQKPGKAPKLLIYDASSLESGVPSRFSGSGSGTDFTLTISSLQPEDFATYYCQQFNDYFTFGPGTKVDIKR
notes: also called UGX066; HC:S59F
B3: the Kd is 0.0142 nM and 0.0147 nM and 0.0146 nM; the “Ratio (variant antibody KD/burosumab KD)” value turned out to be 1; the koff was 8.7e-05 s⁻¹ and 9.61e-05 s⁻¹ and 9.01e-05 s⁻¹; the on-rate constant (kon) was 6.2e+06 M⁻¹ s⁻¹ (2×) and 6.5e+06 M⁻¹ s⁻¹.

B4: UGX146 (antibody, human IgG1, kappa, V domains shown)
VH: QVQLVQSGAEVKKPGASVKVSCKASGYTFTNHYMHWVRQAPGQGLEWMGIINPISGSTSNAQKFQGRVTMTRDTSTSTVYMELSSLRSEDTAVYYCARDIVDAFDFWGQGTMVTVSS
VL: AIQLTQSPSSLSASVGDRVTITCRASQGISSALVWYQQKPGKAPKLLIYDASSLESGVPSRFSGSGSGTDFTLTISSLQPEDFATYYCQQFNDFFTFGPGTKVDIKR
notes: also called LC:Y94F
With B4, the Kd turned out to be 0.0332 nM, the “Ratio (variant antibody KD/burosumab KD)” value came out at 1, the “SA (surface activity)” value came to 89.9% and the off-rate constant (koff) came out at 0.00017 s⁻¹. Also, the kon stood at 5.14e+06 M⁻¹ s⁻¹.

B5: UGX131 (antibody, human IgG1, kappa, V domains shown)
VH: QVQLVQSGAEVKKPGASVKVSCKASGYTFTNHYMHWVRQAPGQGLEWMGIINPISGSTSNAQKFQGRVTMTRDTSTSTVYMELSSLRSEDTAVYYCARDIVDAFDFWGQGTMVTVSS
VL: AIQLTQSPSSLSASVGDRVTITCRASQGISSALVWYQQKPGKAPKLLIYDASFLESGVPSRFSGSGSGTDFTLTISSLQPEDFATYYCQQFNDYFTFGPGTKVDIKR
notes: also called LC:S53F
With B5, the Kd is 0.0393 nM, the “Ratio (variant antibody KD/burosumab KD)” value stood at 1, the “SA (surface activity)” value was determined as 95.7% and the koff is 0.000266 s⁻¹. Besides, the kon is 6.78e+06 M⁻¹ s⁻¹.

B6: UGX133 (antibody, human IgG1, kappa, V domains shown)
VH: QVQLVQSGAEVKKPGASVKVSCKASGYTFTNHYMHWVRQAPGQGLEWMGIINPISGSTSNAQKFQGRVTMTRDTSTSTVYMELSSLRSEDTAVYYCARDIVDAFDFWGQGTMVTVSS
VL: AIQLTQSPSSLSASVGDRVTITCRASQGISSALVWYQQKPGKAPKLLIYDASYLESGVPSRFSGSGSGTDFTLTISSLQPEDFATYYCQQFNDYFTFGPGTKVDIKR
notes: also called UGX022; LC:S53Y
As for B6, the Kd amounted to 0.202 nM, the “Ratio (variant antibody KD/burosumab KD)” value is 0, the “SA (surface activity)” value was 84.8% and the koff stood at 0.000733 s⁻¹. The kon amounted to 3.63e+06 M⁻¹ s⁻¹.

B7: UGX135 (antibody, human IgG1, kappa, V domains shown)
VH: QVQLVQSGAEVKKPGASVKVSCKASGYTFTNHYMHWVRQAPGQGLEWMGIINPISGSTSNAQKFQGRVTMTRDTSTSTVYMELSSLRSEDTAVYYCARDIVDAFDFWGQGTMVTVSS
VL: AIQLTQSPSSLSASVGDRVTITCRASQGISSALVWYQQKPGKAPKLLIYDASSLESGVPSRFSGSGSGTDFTLTISSLQPEDFATYYCQQFDDYFTFGPGTKVDIKR
notes: also called LC:N92D
As to B7, the Kd amounted to 0.0235 nM, the “Ratio (variant antibody KD/burosumab KD)” value turned out to be 1, the “SA (surface activity)” value came out at 100% and the koff is 0.000181 s⁻¹. For the same molecule, the kon was found to be 7.71e+06 M⁻¹ s⁻¹.

B8: UGX148 (antibody, human IgG1, kappa, V domains shown)
VH: QVQLVQSGAEVKKPGASVKVSCKASGYTFFNHYMHWVRQAPGQGLEWMGIINPISGSTSNAQKFQGRVTMTRDTSTSTVYMELSSLRSEDTAVYYCARDIVDAFDFWGQGTMVTVSS
VL: AIQLTQSPSSLSASVGDRVTITCRASQGISSALVWYQQKPGKAPKLLIYDASSLESGVPSRFSGSGSGTDFTLTISSLQPEDFATYYCQQFNDYFTFGPGTKVDIKR
notes: also called HC:T30F
In the case of B8, the Kd was determined as 0.0272 nM, the “Ratio (variant antibody KD/burosumab KD)” value worked out at 1, the “SA (surface activity)” value came out at 91.2% and the koff came out at 0.000181 s⁻¹. For the same molecule, the kon turned out to be 6.65e+06 M⁻¹ s⁻¹.

B9: UGX137 (antibody, human IgG1, kappa, V domains shown)
VH: QVQLVQSGAEVKKPGASVKVSCKASGYTFTNHYMHWVRQAPGQGLEWMGIINPISGSTSNAQKFQGRVTMTRDTSTSTVYMELSSLRSEDTAVYYCARDIVDAFDFWGQGTMVTVSS
VL: AIQLTQSPSSLSASVGDRVTITCRASQGISSALVWYQQKPGKAPKLLIYDASSLESGVPSRFSGSGSGTDFTLTISSLQPEDFATYYCQQFFDYFTFGPGTKVDIKR
notes: also called UGX035; LC:N92F
In the case of B9, the Kd came to 0.0319 nM, the “Ratio (variant antibody KD/burosumab KD)” value was 1, the “SA (surface activity)” value was determined as 86.5% and the koff is 0.000161 s⁻¹. The kon is 5.04e+06 M⁻¹ s⁻¹.

B10: UGX127 (antibody, human IgG1, kappa, V domains shown)
VH: QVQLVQSGAEVKKPGASVKVSCKASGYTFTNHYMHWVRQAPGQGLEWMGIINPISGSTSNAQKFQGRVTMTRDTSTSTVYMELSSLRSEDTAVYYCARDIVDAFDFWGQGTMVTVSS
VL: AIQLTQSPSSLSASVGDRVTITCRASQGISSALVWYQQKPGKAPKLLIYDAESLESGVPSRFSGSGSGTDFTLTISSLQPEDFATYYCQQFNDYFTFGPGTKVDIKR
notes: also called UGX017; LC:S52E
For B10, the equilibrium dissociation constant (Kd) amounted to 0.0176 nM, the “Ratio (variant antibody KD/burosumab KD)” value is 1, the “SA (surface activity)” value amounted to 85% and the koff came out at 0.000122 s⁻¹. Besides, the kon turned out to be 6.93e+06 M⁻¹ s⁻¹.

B11: UGX153 (antibody, human IgG1, kappa, V domains shown)
VH: QVQLVQSGAEVKKPGASVKVSCKASGYTFTRHYMHWVRQAPGQGLEWMGIINPISGSTSNAQKFQGRVTMTRDTSTSTVYMELSSLRSEDTAVYYCARDIVDAFDFWGQGTMVTVSS
VL: AIQLTQSPSSLSASVGDRVTITCRASQGISSALVWYQQKPGKAPKLLIYDASSLESGVPSRFSGSGSGTDFTLTISSLQPEDFATYYCQQFNDYFTFGPGTKVDIKR
notes: also called HC:N31R
Consider B11, for which the dissociation constant (Kd) turned out to be 0.112 nM, the “Ratio (variant antibody KD/burosumab KD)” value amounted to 0, the “SA (surface activity)” value came to 83.7% and the koff was found to be 0.000322 s⁻¹. In addition, the kon was 2.87e+06 M⁻¹ s⁻¹.

B12: UGX159 (antibody, human IgG1, kappa, V domains shown)
VH: QVQLVQSGAEVKKPGASVKVSCKASGYTFTNHYMHWVRQAPGQGLEWMGIINPISGSTENAQKFQGRVTMTRDTSTSTVYMELSSLRSEDTAVYYCARDIVDAFDFWGQGTMVTVSS
VL: AIQLTQSPSSLSASVGDRVTITCRASQGISSALVWYQQKPGKAPKLLIYDASSLESGVPSRFSGSGSGTDFTLTISSLQPEDFATYYCQQFNDYFTFGPGTKVDIKR
notes: also called HC:S59E
With B12, the Kd is 0.0226 nM and 0.0251 nM; the “Ratio (variant antibody KD/burosumab KD)” value came to 1; the koff was 0.000224 s⁻¹ and 0.000222 s⁻¹; the kon is 9.91e+06 M⁻¹ s⁻¹ and 8.83e+06 M⁻¹ s⁻¹.

B13: UGX152 (antibody, human IgG1, kappa, V domains shown)
VH: QVQLVQSGAEVKKPGASVKVSCKASGYTFTQHYMHWVRQAPGQGLEWMGIINPISGSTSNAQKFQGRVTMTRDTSTSTVYMELSSLRSEDTAVYYCARDIVDAFDFWGQGTMVTVSS
VL: AIQLTQSPSSLSASVGDRVTITCRASQGISSALVWYQQKPGKAPKLLIYDASSLESGVPSRFSGSGSGTDFTLTISSLQPEDFATYYCQQFNDYFTFGPGTKVDIKR
notes: also called HC:N31Q
As for B13, the Kd was 0.0416 nM, the “Ratio (variant antibody KD/burosumab KD)” value came out at 0, the “SA (surface activity)” value came out at 91.2% and the koff is 0.000262 s⁻¹. Further, the kon was 6.29e+06 M⁻¹ s⁻¹.

B14: UGX140 (antibody, human IgG1, kappa, V domains shown)
VH: QVQLVQSGAEVKKPGASVKVSCKASGYTFTNHYMHWVRQAPGQGLEWMGIINPISGSTSNAQKFQGRVTMTRDTSTSTVYMELSSLRSEDTAVYYCARDIVDAFDFWGQGTMVTVSS
VL: AIQLTQSPSSLSASVGDRVTITCRASQGISSALVWYQQKPGKAPKLLIYDASSLESGVPSRFSGSGSGTDFTLTISSLQPEDFATYYCQQFNFYFTFGPGTKVDIKR
notes: also called UGX039; LC:D93F
For B14, the kon is 2.63e+06 M⁻¹ s⁻¹ and 2.27e+06 M⁻¹ s⁻¹.

B15: UGX130 (antibody, human IgG1, kappa, V domains shown)
VH: QVQLVQSGAEVKKPGASVKVSCKASGYTFTNHYMHWVRQAPGQGLEWMGIINPISGSTSNAQKFQGRVTMTRDTSTSTVYMELSSLRSEDTAVYYCARDIVDAFDFWGQGTMVTVSS
VL: AIQLTQSPSSLSASVGDRVTITCRASQGISSALVWYQQKPGKAPKLLIYDASELESGVPSRFSGSGSGTDFTLTISSLQPEDFATYYCQQFNDYFTFGPGTKVDIKR
notes: also called LC:S53E
Take B15: the Kd is 0.0348 nM, the “Ratio (variant antibody KD/burosumab KD)” value came out at 1, the “SA (surface activity)” value was determined as 88.4% and the dissociation rate constant (koff) is 0.000358 s⁻¹. Besides, the on-rate (kon) was found to be 1.03e+07 M⁻¹ s⁻¹.
